The target of experiment [1] is Endogenous NSF of human aortic endothelial cells (HAEC) (human) (UniProt P46459). The experiment in a line: cell-based or functional assay.
Experiment [2] has as its target Recombinant RGS-(His)6-NSF (N-ethylmaleimide sensitive factor), wild-type (UniProt P18708). Put plainly: cell-based or functional assay.

Consider one substance from patent US7910111.

Recombinant RGS-(His)6-NSF (N-ethylmaleimide sensitive factor), wild-type, sequence (P18708 other isoform, or with tags, fused parts or gaps limits assumed): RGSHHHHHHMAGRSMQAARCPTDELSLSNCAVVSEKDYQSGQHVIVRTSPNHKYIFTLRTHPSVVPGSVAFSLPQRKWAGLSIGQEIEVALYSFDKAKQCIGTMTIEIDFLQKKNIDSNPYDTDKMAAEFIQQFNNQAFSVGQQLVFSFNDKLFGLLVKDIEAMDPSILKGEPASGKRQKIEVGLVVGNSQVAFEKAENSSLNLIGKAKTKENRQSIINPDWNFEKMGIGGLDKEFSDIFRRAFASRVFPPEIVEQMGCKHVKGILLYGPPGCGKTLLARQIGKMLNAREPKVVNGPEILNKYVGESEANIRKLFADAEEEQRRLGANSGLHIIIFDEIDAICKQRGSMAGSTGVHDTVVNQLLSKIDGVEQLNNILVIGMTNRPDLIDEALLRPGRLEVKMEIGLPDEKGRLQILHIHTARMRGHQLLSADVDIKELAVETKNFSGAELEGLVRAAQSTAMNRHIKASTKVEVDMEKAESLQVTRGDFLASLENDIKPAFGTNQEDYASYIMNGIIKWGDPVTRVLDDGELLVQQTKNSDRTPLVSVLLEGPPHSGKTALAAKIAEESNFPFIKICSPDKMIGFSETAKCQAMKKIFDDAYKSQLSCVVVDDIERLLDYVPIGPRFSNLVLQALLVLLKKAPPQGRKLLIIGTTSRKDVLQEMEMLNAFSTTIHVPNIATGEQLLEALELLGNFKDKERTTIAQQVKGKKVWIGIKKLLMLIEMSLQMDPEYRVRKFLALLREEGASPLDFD

Substance TAT-NSF81 (peptide) showed an IC50% of endothelial exocytosis (vWF release) in experiment [1] of 1 to 10 µM. For the same substance, the IC50% of NSF ATPase activity in experiment [2] lay in the range of 1 to 10 µM.
